Assay results: PMC5138414, “Structural Basis for Redox Regulation of Cytoplasmic and Chloroplastic Triosephosphate Isomerases from Arabidopsis thaliana” (Frontiers in Plant Science, 2016)
Values belong to the substance of their own block, whether it stands above or below them.

Experiments:
Assay in all cases: SEC; analytical size-exclusion chromatography, Superdex 75 10/300GL, calibrated with Bio-Rad gel filtration standard, 0.5 mL/min, 100 mM TEA pH 7.4, 10 mM EDTA, 1 mM DTT; dimer of identical subunits
[1] = target: chloroplast triosephosphate isomerase from Arabidopsis thaliana, without the predicted chloroplast targeting sequence (Arabidopsis thaliana)
[2] = target: cytoplasmic triosephosphate isomerase from Arabidopsis thaliana (Arabidopsis thaliana) (UniProt P48491)
[3] = target: pdTPI-C15S (Arabidopsis thaliana)
[4] = target: pdTPI-C15S/C89S (Arabidopsis thaliana)
[5] = target: pdTPI-C89S (Arabidopsis thaliana)

Substance: cytoplasmic triosephosphate isomerase from Arabidopsis thaliana (from UniProt P48491 1-254) (enzyme)
stoichiometry N [2]: 2

Substance: pdTPI-C89S (enzyme)
stoichiometry N [5]: 2

Next, values leading:

stoichiometry N [1]: 2
Substance: chloroplast triosephosphate isomerase from Arabidopsis thaliana, without the predicted chloroplast targeting sequence (enzyme)

stoichiometry N [3]: 2
Substance: pdTPI-C15S (enzyme)

stoichiometry N [4]: 2
Substance: pdTPI-C15S/C89S (enzyme)
